From US7041871 come the findings set out here.

The target in the experiment is T1, recombinant soluble human CD4 (human, UniProt P01730 26-396, limits assumed).
T1 construct: Soluble recombinant CD4 used for ELISA and SPR/BIAcore; also called rCD4; sCD4
Nature of the experiment: BIAcore; rCD4 coupled to chip, mAb flowed (avidity). The procedure: The rate and equilibrium constants presented in Table 19 were determined with a BIAcore, using antigen (rCD4) coupled to the sensor chip and flowing mAb over. These constants were derived from at least three independent experiments using purified mAbs.
On the technique in general: In SPR one partner is held on a chip, and binding of the other changes the refractive index at the surface.

B1: 6G5.1 (antibody, human IgG1, V domains shown)
VH: QVQLQQWGAGLLKPSETLSLTCAVYGGSFSGYYWSWIRQPPGKGLEWIGEINHSGSTNYNPSLKSRVTISVDTSKNQFSLKLSSVTAADTAVYYCARVINWFDPWGQGTLVTVSS
VL: DIQMTQSPSSVSASVGDRVTITCRASQDISSWLAWYQHKPGKAPKLLIYAASSLQSGVPSRFSGSGSGTDFTLTISSLQPEDFATYYCQQANSFPYTFGQGTKLEIK
notes: Human IgG1 kappa from a hybridoma of an HC2/KCo5 mouse; VH4-34/JH5, VkL19/Jk2; also called GGS
Usually kon stands for the second-order rate constant of association. Consider B1, for which the kon was 11000 M⁻¹ s⁻¹.
